The source of these data is patent US20240067722A1.

In experiment [1] the target is Recombinant human LAG-3 protein (Fc Chimera), R&D 2319-L3 (human) (UniProt P18627). Description: flow cytometry competition, huLAG-3-Fc on HLA-DR expressing cells, VHH at 500 nM.
Experiment [2] addresses human LAG-3 expressed on cells (human) (UniProt P18627).

B1: huLAG-3 specific VHH 3185 (VHH)
VHH: QVQLQESGGGLVQPGGSLKLSCAASGFTWDYSAIGWFRQAPGKEREGVSCITSSGKDTQYLDSVKGRFTISRDNTKNTVYLQMNNLKPEDTAVYYCAAPGRVRGSCNGRWDYWGQGTQVTVSS
With B1, the percent block of the LAG-3/HLA-DR interaction in experiment [1] came out at 75%.

B2: huLAG-3 specific VHH 3150 (VHH)
VHH: QVQLQESGGGLVQAGGSLRLSCAASGITFDDYAIGWFRQAPGKEREGVSCIRSSDDSTYYADSVKGRFTISSDNAKNTVYLQMNSLKPEDTAVYYCARDVYSDCKGPYDSWGRGTQVTVSS
In turn, B2 gave a GFP expression by 2D3 cells (measure of TCR signaling) in experiment [2] of 2 fold. In addition, the percent block of the LAG-3/HLA-DR interaction in experiment [1] came to 75%.
